Assay: Radiochemical purity before and after autoclave sterilization
Type: physicochemical
Conditions: DTPA-hexa-lactoside autoclaved in a lyophilized vial, then 111In radiolabel
Protocol: To test whether ^111In radiolabel of DTPA-hexa-lactoside was affected by autoclave sterilization, DTPA-hexa-lactoside was put into a lyophilized vial to set in an autoclave for sterilizing. After that, ^111In radiolabel proceeded. […] The comparison of radiochemical purity between before and after autoclave sterilization was illustrated in FIG. 2. First, a developing solvent of radio-ITLC of 10 mM sodium citrate buffer (about pH 5) were prepared as follows: 0.13 g citric acid monohydrate and 0.11 g trisodium citrate dehydrate were weighed precisely to dissolve in 100 ml water for injection. Then 10 ml of the solution were added in the developing tank as a developing solvent. The position away from the bottom of a TLC-SG film about 2 cm was marked with a pencil as the origin while the position away from the bottom about 9 cm was marked as the end. A few samples were taken by a micropipette to drop at the origin. Then, the TLC-SG film was put in a developing tank containing a buffer (about pH 5) of 10 mM sodium citrate to develop. The film were taken out to dry in the fume cabinet while the liquid level reached the end. […] The calculating formula is as follows: Radiochemical purity (%)=A/B×100%, wherein A refers to a calculated area peak of ^111In-DTPA-hexa-lactoside (Rf=0.0-0.1), and B refers to calculated area of all peaks.

Substance: DTPA derivatives of AHA-Asp[DCM-Lys(ah-Lac)3]2 [DTPA-hexa-lactoside]
- radiochemical purity of 111In after autoclave sterilization: < 90%

— patent US9040017B2, “Liver-receptor imaging injection, dispensing method and pharmaceutical composition thereof” (INSTITUTE OF NUCLEAR ENERGY RESEARCH ATOMIC ENERGY COUNCIL, …, priority 2010, dated 2015)
